Tested on: M17 cells
Assay: MPP+ toxicity in stably transfected cell lines, LDH release
Assay type: cell-based, human
Conditions: stable overexpression; MPP+ 0-10 mM; 24 hours
Protocol: Cell lines stably-transfected with either a 14-3-3 isoform or empty vector were treated with varying concentrations of MPP+ for 24 hours. Cell death was assayed by LDH release into the culture media. LDH release into media was normalized to total LDH release for each well. Lines overexpressing 14-3-3θ (FIG. 9A), 14-3-3ε (FIG. 9B), or 14-3-3γ (FIG. 9C) were more resistant to MPP+ in a dose-dependent manner compared to control stable cells. […] Results reflect two to three independent experiments with at least two replicates per experiment. **p<0.01, ***p<0.001 (Bonferroni's multiple comparison test).
The 14-3-3 expressing M17 clones were also tested for resistance to the neurotoxin 1-methyl-4-phenylpyridinium ion (MPP+), which is a metalbolite of 1-methyl-4-phenyl-1,2,3,6-tetrahydropyridine (MPTP). M17 cells expressing the 14-3-3 isoforms were prepared as described. M17 cells were treated with MPP+ (0-10 mM) for 24 hours (FIGS. 9A-G). Cell death was assayed by LDH release into the culture media as described above.
Primers against each of the human 14-3-3 isoforms were designed using Primer3. Primers against 14-3-3β (NM_018753) were 5′ […] 3′ (forward; SEQ ID NO. 9) and 5′ […] 3′ (reverse; SEQ ID NO. 10). Primers against 14-3-3ε (NM_009536) were 5′ […] 3′ (forward; SEQ ID NO. 11) and 5′ […] 3′ (reverse; SEQ ID NO. 12). Primers against 14-3-3γ (NM_018871) were 5′ […] 3′ (forward; SEQ ID NO. 13) and 5′ […] 3′ (reverse; SEQ ID NO. 14). Primers against 14-3-3η (NM_011738) were 5′ […] 3′ (forward; SEQ ID NO. 15) and 5′ […] 3′ (reverse; SEQ ID NO. 16). Primers against 14-3-3θ (NM_011739) were 5′ […] 3′ (forward; SEQ ID NO. 17) and 5′ […] 3′ (reverse; SEQ ID NO. 18). Primers against 14-3-3σ (NM_018754) were 5′ […] 3′ (forward; SEQ ID NO. 19) and 5′ […] 3′ (reverse; SEQ ID NO. 20). Primers against 14-3-3ζ(NM_011740) were 5′ […] 3′ (forward; SEQ ID NO. 21) and 5′ […] 3′ (reverse; SEQ ID NO. 22). Primers against GAPDH were 5′ tggtgaagcaggeatctga 3′ (forward; SEQ ID NO. 23) and 5′ […] 3′ (reverse; SEQ ID NO. 24) and were used to normalize PCR results. • α-syn aggregation assay H4 cells were transfected with synphilin, α-syn/green fluorescent protein (synT), and either empty vector control or a 14-3-3 isoform using Superfect transfection reagent (Qiagen). 24 hours after transfection, cells were fixed with 4% paraformaldehyde and immunostained with a monoclonal antibody against α-syn (BD Transduction) and a secondary Alexa 488-conjugated goat anti-mouse antibody (Molecular Probes). All cells stained for α-syn were scored as positive or negative for α-syn aggregates, with the rater blind to experimental condition. • α-syn toxicity assay H4 cells were transfected with α-syn and either empty vector control or a 14-3-3 isoform using Superfect transfection reagent (Qiagen). 24 hours after transfection, toxicity was measured by the amount of adenylate kinase released into the media using the ToxiLight™ kit (Cambrex). • Creation of stable cell lines Each 14-3-3 isoform was subcloned into the mammalian expression vector mcDNA3.1/V5-His (Invitrogen). BE(2)-M17 cells were transfected with each isoform or empty vector using Superfect, and stably-transfected cells were selected for in the presence of G418. […] Protein concentrations of supernatants were determined by the bicinchoninic acid assay (BCA; Pierce, Rockford, Ill.). […]

14-3-3γ: 14-3-3 polypeptide γ isoform, overexpressed from expression vector
protection against MPP+ toxicity (LDH release): reduced toxicity

B1: 14-3-3ε: 14-3-3 polypeptide ε isoform, overexpressed from expression vector (protein, UniProt P62258 1-255, looked up)
14-3-3 protein epsilon: MDDREDLVYQAKLAEQAERYDEMVESMKKVAGMDVELTVEERNLLSVAYKNVIGARRASWRIISSIEQKEENKGGEDKLKMIREYRQMVETELKLICCDILDVLDKHLIPAANTGESKVFYYKMKGDYHRYLAEFATGNDRKEAAENSLVAYKAASDIAMTELPPTHPIRLGLALNFSVFYYEILNSPDRACRLAKAAFDDAIAELDTLSEESYKDSTLIMQLLRDNLTLWTSDMQGDGEEQNKEALQDVEDENQ
protection against MPP+ toxicity (LDH release): reduced toxicity

B2: 14-3-3θ: 14-3-3 polypeptide θ isoform, overexpressed from V5/His-tagged pcDNA3.1 vector (or as transgene in C. elegans) (protein, UniProt P27348 1-245, looked up)
14-3-3 protein theta: MEKTELIQKAKLAEQAERYDDMATCMKAVTEQGAELSNEERNLLSVAYKNVVGGRRSAWRVISSIEQKTDTSDKKLQLIKDYREKVESELRSICTTVLELLDKYLIANATNPESKVFYLKMKGDYFRYLAEVACGDDRKQTIDNSQGAYQEAFDISKKEMQPTHPIRLGLALNFSVFYYEILNNPELACTLAKTAFDEAIAELDTLNEDSYKDSTLIMQLLRDNLTLWTSDSAGEECDAAEGAEN
modifications: V5/His tag
protection against MPP+ toxicity (LDH release): reduced toxicity

B3: 14-3-3ζ: 14-3-3 polypeptide ζ isoform, overexpressed from expression vector (protein, UniProt P63104 1-245, looked up)
14-3-3 protein zeta/delta: MDKNELVQKAKLAEQAERYDDMAACMKSVTEQGAELSNEERNLLSVAYKNVVGARRSSWRVVSSIEQKTEGAEKKQQMAREYREKIETELRDICNDVLSLLEKFLIPNASQAESKVFYLKMKGDYYRYLAEVAAGDDKKGIVDQSQQAYQEAFEISKKEMQPTHPIRLGLALNFSVFYYEILNSPEKACSLAKTAFDEAIAELDTLSEESYKDSTLIMQLLRDNLTLWTSDTQGDEAEAGEGGEN
protection against MPP+ toxicity (LDH release): did not show any significant protection
